Earlier results, collected in PMC3604136.

Molecular target: ARNT PAS-B (Homo sapiens) (UniProt P27540)
Sequence (P27540 356-470): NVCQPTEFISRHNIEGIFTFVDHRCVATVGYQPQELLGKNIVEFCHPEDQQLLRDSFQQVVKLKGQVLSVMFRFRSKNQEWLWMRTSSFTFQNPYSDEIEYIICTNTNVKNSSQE

Sequence of HIF-2α PAS-B (Q99814 239-350): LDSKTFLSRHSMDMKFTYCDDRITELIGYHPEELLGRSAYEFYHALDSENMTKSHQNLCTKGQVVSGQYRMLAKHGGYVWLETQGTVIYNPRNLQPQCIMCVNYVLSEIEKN

Kd: 100 µM
Substance: HIF-2α PAS-B (from UniProt Q99814)
